Reference: IntAct's records for PubMed 16778768

B1: High osmolarity signaling protein SHO1 (Saccharomyces cerevisiae), P40073 (parent)
chain: MSISSKIRPTPRKPSRMATDHSFKMKKFYADPFAISSISLAIVSWVIAIGGSISSASTNESFPRFTWWGIVYQFLIICSLMLFYCFDLVDHYRIFITTSIAVAFVYNTNSATNLVYADGPKKAAASAGVILLSIINLIWILYYGGDNASPTNRWIDSFSIKGIRPSPLENSLHRARRRGNRNTTPYQNNVYNDAIRDSGYATQFDGYPQQQPSHTNYVSSTALAGFENTQPNTSEAVNLHLNTLQQRINSASNAKETNDNSNNQTNTNIGNTFDTDFSNGNTETTMGDTLGLYSDIGDDNFIYKAKALYPYDADDDDAYEISFEQNEILQVSDIEGRWWKARRANGETGIIPSNYVQLIDGPEEMHR
partner: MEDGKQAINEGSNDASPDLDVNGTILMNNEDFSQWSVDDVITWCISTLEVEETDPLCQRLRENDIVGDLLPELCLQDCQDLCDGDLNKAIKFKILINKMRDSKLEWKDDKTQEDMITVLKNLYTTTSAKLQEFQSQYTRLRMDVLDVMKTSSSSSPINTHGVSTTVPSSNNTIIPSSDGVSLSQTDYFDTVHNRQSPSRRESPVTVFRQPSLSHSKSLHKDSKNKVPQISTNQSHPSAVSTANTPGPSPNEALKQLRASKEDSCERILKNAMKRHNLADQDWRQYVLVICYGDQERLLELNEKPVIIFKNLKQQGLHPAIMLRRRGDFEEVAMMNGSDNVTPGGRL
B2: High osmolarity signaling protein SHO1 (Saccharomyces cerevisiae), P40073 (parent)
chain: B1 chain
partner: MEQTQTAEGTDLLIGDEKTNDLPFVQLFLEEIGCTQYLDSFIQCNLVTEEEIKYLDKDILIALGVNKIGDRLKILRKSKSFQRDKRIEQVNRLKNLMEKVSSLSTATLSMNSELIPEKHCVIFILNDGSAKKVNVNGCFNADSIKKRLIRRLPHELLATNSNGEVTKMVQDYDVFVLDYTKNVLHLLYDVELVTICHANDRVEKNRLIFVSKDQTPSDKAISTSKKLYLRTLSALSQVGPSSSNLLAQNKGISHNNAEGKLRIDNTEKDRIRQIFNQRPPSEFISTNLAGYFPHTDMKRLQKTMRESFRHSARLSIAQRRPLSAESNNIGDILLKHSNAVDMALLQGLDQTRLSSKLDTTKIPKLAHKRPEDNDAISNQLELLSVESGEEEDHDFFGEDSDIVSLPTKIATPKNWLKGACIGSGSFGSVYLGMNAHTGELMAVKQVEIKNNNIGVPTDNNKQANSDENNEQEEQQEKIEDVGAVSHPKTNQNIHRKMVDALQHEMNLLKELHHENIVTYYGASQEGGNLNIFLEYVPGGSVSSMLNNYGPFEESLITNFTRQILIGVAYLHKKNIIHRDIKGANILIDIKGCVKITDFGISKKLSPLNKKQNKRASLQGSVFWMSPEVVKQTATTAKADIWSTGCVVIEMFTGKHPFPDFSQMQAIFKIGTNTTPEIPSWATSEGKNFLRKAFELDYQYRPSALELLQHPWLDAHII

Variants of: B1
Settings: with ste50_yeast STE50, P25344

Row | Variant | effect of a mutation on the interaction
1 | G346S | increasing interaction
2 | R342G | increasing interaction

Variants of: B2
Settings: with ste11_yeast STE11, P23561

Row | Variant | effect of a mutation on the interaction
3 | G346S | increasing interaction
4 | R342G | increasing interaction
